Data: publication PMC12416549 (2024)
Where a chain is given by its changes, count along the chain named. Names and notes keep the numbering of the source.

T1: TNFR1 (Homo sapiens, UniProt P19438)
T1 chain: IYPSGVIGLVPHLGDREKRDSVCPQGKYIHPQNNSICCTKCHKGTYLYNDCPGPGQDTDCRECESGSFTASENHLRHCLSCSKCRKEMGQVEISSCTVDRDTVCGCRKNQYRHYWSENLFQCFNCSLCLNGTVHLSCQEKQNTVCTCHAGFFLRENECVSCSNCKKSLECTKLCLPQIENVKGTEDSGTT

B1: K35Y (designed binder)
chain: MTLQELLREEALRRAEAEAFRYALELLAEKFPEQYEYLLDLAEEIESQIRSLSGVDVEDVRKFLDKEWAWVKELLAEHPAELAEVEAARAARLAELRAEVEAKVAA
B2: E81K (designed binder)
chain: B1 chain with Y35K, E81K
B3: E44T (designed binder)
chain: B1 chain with Y35K, E44T
B4: S47R (designed binder)
chain: B1 chain with Y35K, S47R
B5: A17Y (designed binder)
chain: B1 chain with A17Y, Y35K
B6: L24V (designed binder)
chain: B1 chain with L24V, Y35K
B7: L41E (designed binder)
chain: B1 chain with Y35K, L41E
B8: A88K (designed binder)
chain: B1 chain with Y35K, A88K
B9: I49E (designed binder)
chain: B1 chain with Y35K, I49E
B10: L93R (designed binder)
chain: B1 chain with Y35K, L93R
B11: A105G (designed binder)
chain: B1 chain with Y35K, A105G
B12: L7F (designed binder)
chain: B1 chain with L7F, Y35K
B13: L52E (designed binder)
chain: B1 chain with Y35K, L52E
B14: E84N (designed binder)
chain: B1 chain with Y35K, E84N
B15: E5Y (designed binder)
chain: B1 chain with E5Y, Y35K
B16: A88P (designed binder)
chain: B1 chain with Y35K, A88P
B17: E43F (designed binder)
chain: B1 chain with Y35K, E43F
B18: L64R (designed binder)
chain: B1 chain with Y35K, L64R
B19: A102N (designed binder)
chain: B1 chain with Y35K, A102N
B20: A69F (designed binder)
chain: B1 chain with Y35K, A69F
B21: A102K (designed binder)
chain: B1 chain with Y35K, A102K
B22: E58Y (designed binder)
chain: B1 chain with Y35K, E58Y
B23: V55F (designed binder)
chain: B1 chain with Y35K, V55F
B24: L41S (designed binder)
chain: B1 chain with Y35K, L41S
B25: L75V (designed binder)
chain: B1 chain with Y35K, L75V
B26: E81T (designed binder)
chain: B1 chain with Y35K, E81T
B27: F20H (designed binder)
chain: B1 chain with F20H, Y35K
B28: L27Y (designed binder)
chain: B1 chain with L27Y, Y35K
B29: L39N (designed binder)
chain: B1 chain with Y35K, L39N
B30: K103N (designed binder)
chain: B1 chain with Y35K, K103N
B31: L38A (designed binder)
chain: B1 chain with Y35K, L38A
B32: I45D (designed binder)
chain: B1 chain with Y35K, I45D
B33: A102V (designed binder)
chain: B1 chain with Y35K, A102V
B34: I49A (designed binder)
chain: B1 chain with Y35K, I49A
B35: E18N (designed binder)
chain: B1 chain with E18N, Y35K
B36: A19K (designed binder)
chain: B1 chain with A19K, Y35K
B37: R13C (designed binder)
chain: B1 chain with R13C, Y35K
B38: A15I (designed binder)
chain: B1 chain with A15I, Y35K
B39: E44D (designed binder)
chain: B1 chain with Y35K, E44D
B40: E58C (designed binder)
chain: B1 chain with Y35K, E58C
B41: V60K (designed binder)
chain: B1 chain with Y35K, V60K
B42: E99N (designed binder)
chain: B1 chain with Y35K, E99N
B43: E16S (designed binder)
chain: B1 chain with E16S, Y35K

Biological target: T1, TNFR1
Assay: yeast display SC50

| Binder | apparent Kd (screen) [nM] |
| --- | --- |
| B1 | 0.446 |
| B2 | 0.539 |
| B3 | 9.41 |
| B4 | 0.49 |
| B5 | 0.593 |
| B6 | 0.653 |
| B7 | 2.25 |
| B8 | 0.539 |
| B9 | 2.48 |
| B10 | 0.869 |
| B11 | 0.869 |
| B12 | 7.07 |
| B13 | 24.4 |
| B14 | 0.869 |
| B15 | 0.718 |
| B16 | 2.05 |
| B17 | 0.653 |
| B18 | 5.31 |
| B19 | 0.539 |
| B20 | 0.956 |
| B21 | 0.539 |
| B22 | 0.539 |

| Binder | apparent Kd (screen) [nM] |
| --- | --- |
| B23 | 0.869 |
| B24 | 1.16 |
| B25 | 0.593 |
| B26 | 0.539 |
| B27 | 0.49 |
| B28 | 0.539 |
| B29 | 2.48 |
| B30 | 0.49 |
| B31 | 12.5 |
| B32 | 1.54 |
| B33 | 0.539 |
| B34 | 2.73 |
| B35 | 0.49 |
| B36 | 10.4 |
| B37 | 0.539 |
| B38 | 0.593 |
| B39 | 7.78 |
| B40 | 0.653 |
| B41 | 3 |
| B42 | 0.718 |
| B43 | 0.653 |
